Source: patent publication US20060257938A1, “Method of screening for drugs that block ligand binding to a lipid binding protein” (priority 2005, published 2006)
Numbering of substitutions follows the chain as printed. Values joined by “and” are separate entries in the source; they are usually repeats but may differ in a detail not shown here. Identical values can stand only once.

B1: 34V, 72A (protein, listed as Rattus norvegicus)
chain: AFDGTWKVDRNENYEKFMEKMGINVVKRKLGAHVNLKLTITQEGNKFTVKESSNFRNIDVVFELGVDFAYSAADGTELTGTWTMEGNKLVGKFKRVDNGKELIAVREISGNELIQTYTYEGVEAKRIFKKE
modifications: PEPTIDE (1)...(131) wild-type rat intestinal fatty acid binding protein
B2: 36G2, 72A (protein, listed as Rattus norvegicus)
chain: B1 chain with V34D, L36G
modifications: PEPTIDE (1)...(131) wild-type rat intestinal fatty acid binding protein
B3: 36D1, 72A (protein, listed as Rattus norvegicus)
chain: B1 chain with V34D, L36D
modifications: PEPTIDE (1)...(131) wild-type rat intestinal fatty acid binding protein
B4: 36C3, 72A (protein, listed as Rattus norvegicus)
chain: B1 chain with V34D, L36C
modifications: PEPTIDE (1)...(131) wild-type rat intestinal fatty acid binding protein
B5: 34Y, 72A (protein, listed as Rattus norvegicus)
chain: B1 chain with V34Y
modifications: PEPTIDE (1)...(131) wild-type rat intestinal fatty acid binding protein
B6: 36A, 72A (protein, listed as Rattus norvegicus)
chain: B1 chain with V34D, L36A
modifications: PEPTIDE (1)...(131) wild-type rat intestinal fatty acid binding protein
B7: 36F1, 72A (protein, listed as Rattus norvegicus)
chain: B1 chain with V34D, L36F
modifications: PEPTIDE (1)...(131) wild-type rat intestinal fatty acid binding protein
B8: 36E2, 72A (protein, listed as Rattus norvegicus)
chain: B1 chain with V34D, L36E
modifications: PEPTIDE (1)...(131) wild-type rat intestinal fatty acid binding protein
B9: 34W, 72A (protein, listed as Rattus norvegicus)
chain: B1 chain with V34W
modifications: PEPTIDE (1)...(131) wild-type rat intestinal fatty acid binding protein

Assay: Probe fluorescence ratio response to palmitic acid relative to ADIFAB2
Format: binding
Conditions: response relative to ADIFAB2
How it was run: (§1)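 Fluorescently labeled rat intestinal FABP variants were read at two emission wavelengths, near the unbound maximum (about 420 to 480 nm) and the FFA-bound maximum (about 495 to 580 nm). R = Fλ1/Fλ2 after subtracting probe-free intensity; ΔR = R+agent − R0, normalized to ADIFAB2 (rI-FABP-L72A).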
For B1, the “DR/DR PA” value was 1.11. With B2 the “DR/DR PA” value was 0.55. With B3 the “DR/DR PA” value was 0.18. In the case of B4, the “DR/DR PA” value is reported as −0.21. With B5 the “DR/DR PA” value was 1.06. With B6 the “DR/DR PA” value was 0.46. With B7 the “DR/DR PA” value was 0.52. With B8 the “DR/DR PA” value was 0.19. With B9 the “DR/DR PA” value was 0.93 and 0.920.

Assay: Probe fluorescence ratio response to oleic acid relative to ADIFAB2
Format: binding
Conditions: response relative to ADIFAB2
How it was run: as §1
In the case of B1, the “DR/DR OA” value is reported as 1.19. For B2, the “DR/DR OA” value was 0.97. For B3, the “DR/DR OA” value was 0.20. In the case of B4, the “DR/DR OA” value is reported as −0.40. For B5, the “DR/DR OA” value was 1.19. With B6 the “DR/DR OA” value was 0.46. In the case of B7, the “DR/DR OA” value is reported as 0.55. With B8 the “DR/DR OA” value was 0.20. In the case of B9, the “DR/DR OA” value is reported as 1.38 and 1.210.

Assay: Probe fluorescence ratio response to linoleic acid relative to ADIFAB2
Format: binding
Conditions: response relative to ADIFAB2
How it was run: as §1
With B1 the “DR/DR LA” value was 1.15. For B2, the “DR/DR LA” value was 1.17. In the case of B3, the “DR/DR LA” value is reported as 0.27. With B4 the “DR/DR LA” value was −0.36. In the case of B5, the “DR/DR LA” value is reported as 1.24. In the case of B6, the “DR/DR LA” value is reported as 0.51. In the case of B7, the “DR/DR LA” value is reported as 0.67. With B8 the “DR/DR LA” value was 0.25. In the case of B9, the “DR/DR LA” value is reported as 1.34 and 1.110.

Assay: Probe fluorescence ratio response to linolenic acid relative to ADIFAB2
Format: binding
Conditions: response relative to ADIFAB2
How it was run: as §1
With B1 the “DR/DR LNA” value was 1.21. In the case of B2, the “DR/DR LNA” value is reported as 1.16. For B3, the “DR/DR LNA” value was 0.21. In the case of B4, the “DR/DR LNA” value is reported as −0.30. For B5, the “DR/DR LNA” value was 1.22. With B6 the “DR/DR LNA” value was 0.50. In the case of B7, the “DR/DR LNA” value is reported as 0.66. For B8, the “DR/DR LNA” value was 0.23. For B9, the “DR/DR LNA” value was 1.37 and 1.130.

Assay: Probe fluorescence ratio response to arachidonic acid relative to ADIFAB2
Format: binding
Conditions: arachidonic acid; response relative to ADIFAB2
How it was run: as §1
With B1 the “DR/DR AA” value was 1.22. With B2 the “DR/DR AA” value was 1.00. With B3 the “DR/DR AA” value was 0.20. With B4 the “DR/DR AA” value was −0.22. In the case of B5, the “DR/DR AA” value is reported as 1.22. For B6, the “DR/DR AA” value was 0.53. With B7 the “DR/DR AA” value was 0.66. In the case of B8, the “DR/DR AA” value is reported as 0.24. For B9, the “DR/DR AA” value was 1.31 and 1.060.
